The text below walks through data of PMC3044691.

Read-outs that look alike come from different tables or passages of the source.

In test [1] the target is integrin α4β7 (human (endogenous in primary CD4+ T cells)) (UniProt P13612). In words: flow cytometry on cells; α4β7-reactivity: biotinylated gp120 on retinoic acid-cultured primary CD4+ T cells with CD4 masked by unlabeled mAb Leu3A (α4 mAb HP2/1 as specificity control); HBS with 100 µM CaCl2 and 1 mM MnCl2, on ice; Neutravidin PE; MFI of the CD45RO+/CCR5+ gate; steady state. For orientation: In flow cytometry, cells or beads pass a laser one at a time.

Test [2] deals with integrin α4β7, P13612;P26010. The experiment in a line: steady-state binding assay on primary α4β7+/CD4+ T-cells (flow cytometry, MFI). Particulars: read off a plot.
Test [3] has as its target integrin α4β7 (human (endogenous in primary CD4+ T cells)) (UniProt P13612). In words: flow cytometry on cells; α4β7-reactivity: biotinylated gp120 on retinoic acid-cultured primary CD4+ T cells with CD4 masked by unlabeled mAb Leu3A (α4 mAb HP2/1 as specificity control); HBS with 100 µM CaCl2 and 1 mM MnCl2, on ice; Neutravidin PE; MFI of the CD45RO+/CCR5+ gate; steady state. This is another data set of the same source.

Setting [4] is: first point, plotted at x = 0 µg gp120, parent: est. 20.

Substance AN1 NN140/143QQ gp120 returned a fold increase in α4β7-reactivity over AN1 w.t. expressed in CHO-S cells in test [1] of 25 fold.
On to “92Ug037 w.t. gp120 (subtype A) N187Q; N188Q”, for which the response in test [2] (parent: est. 27) amounted to 540 MFI.
Consider 92Ug037N385Q gp120 (natural protein), for which the fold increase in α4β7-reactivity over w.t. 92Ug037 in test [1] turned out to be 8 fold.
As to “QA203M41 chimeric gp120 (V1/V2 of QA203M41 in a Q23 backbone) N22Q; N25Q”, the response is 300 MFI in test [2] (setting [4]); 270 MFI in test [2] (gp120 0.5 µg, parent: est. 20); 580 MFI in test [2] (gp120 1 µg, parent: est. 25); 600 MFI in test [2] (gp120 1 µg, parent: est. 45); 1400 MFI in test [2] (gp120 2 µg, parent: est. 30); 1300 MFI in test [2] (gp120 2 µg, parent: est. 110). For the same substance, the response came to 1700 MFI in test [2] (gp120 4 µg, parent: est. 50) and 2000 MFI in test [2] (gp120 4 µg, parent: est. 230).
For 92Ug037N144Q gp120 (natural protein), in test [1], the fold increase in α4β7-reactivity over w.t. 92Ug037 was determined as 20 fold.
In test [1], “Z205F.ENV1.1 0Mfounder gp120 (natural protein)” returned a fold bound to α4β7 over bound to CD4 of 37 fold; a fold α4β7-reactivity over the 0-month escape gp120 of 8 fold; a fold α4β7-reactivity over the 8- and 38-month escape gp120s of more than 17 fold.
Regarding 93MW959 w.t. gp120 (subtype C) N145Q, in test [2] (parent: est. 300), the response was 550 MFI.
“AN1 w.t. gp120 expressed in CHO lec1 cells”: the results for the fold α4β7-reactivity over CHO S AN1 w.t. gp120 in test [1] and in test [3] were 100 fold and more than 100 fold, respectively.
As to 92Ug037 w.t. gp120 (subtype A) N133Q, in test [2] (parent: est. 27), the response turned out to be 72 MFI.
As for “QA203M41 chimeric gp120 (V1/V2 of QA203M41 in a Q23 backbone) N66Q; N67Q”, the response in test [2] (setting [4]) was determined as 50 MFI; in test [2] (gp120 2 µg, parent: est. 30) it was 180 MFI; in test [2] (gp120 4 µg, parent: est. 50), 280 MFI.
AN1 NN140/143QQ,N204Q gp120 gave a fold increase in α4β7-reactivity over AN1 w.t. expressed in CHO-S cells in test [1] of 96 fold.
For 92Ug037 w.t. gp120 (subtype A) N137Q, the response in test [2] (parent: est. 27) was found to be 160 MFI.
For 92Ug037N355Q gp120 (natural protein), in test [1], the fold increase in α4β7-reactivity over w.t. 92Ug037 was 27 fold.
For the substance 93MW959 w.t. gp120 (subtype C) N139Q, the response in test [2] (parent: est. 300) was determined as 500 MFI.
In turn, AN1 N204Q gp120 had a fold increase in α4β7-reactivity over AN1 w.t. expressed in CHO-S cells in test [1] of 23 fold.
As for “QA203M41 chimeric gp120 (V1/V2 of QA203M41 in a Q23 backbone) N22Q; N25Q; N66Q; N67Q”, the response in test [2] (setting [4]) amounted to 200 MFI; in test [2] (gp120 1 µg, parent: est. 25) it was 410 MFI; in test [2] (gp120 2 µg, parent: est. 30), 750 MFI; in test [2] (gp120 4 µg, parent: est. 50), 1300 MFI.
